Measurements from US20050244400A1.

Assays:
[1] = target: GAA Δ 817-952 (human GAA lacking C-terminal residues 817-952) (human) (UniProt P10253); experiment: cell-based or functional assay
[2] = target: GAAΔ791-952-GILTΔ1-7 (GAA truncated with the GILT tag fused at position 791) (human) (UniProt P10253); experiment: cell-based or functional assay

Substance	GAA activity (nmol/hr-ml) in media of co-transfected HEK293 cells [1] [nmol/h/mL]	GAA activity (nmol/hr-ml) in media of co-transfected HEK293 cells [2] [nmol/h/mL]
SS-GAA-791-952 (human IGF-II signal sequence fused to human GAA residues 791-952, the C-terminal domain) (from UniProt P10253 791-952) (enzyme)	14	2
SS-GAA-817-952 (from UniProt P10253 817-952) (enzyme)		1
